Assay [1] concerns endogenous eIF4E and HA-tagged 4E-BPs in S2 cells. The experiment in a line: Immunofluorescence localization in S2 cells. Conditions: −LMB. It is filed as cell-based, Drosophila melanogaster. Here is the method: S2 cells expressing HA-tagged versions of CUP, Thor and 4E-T or the indicated mutants were treated with Leptomycin B (100 nM; Sigma) or methanol as a control for 12 h. After the LMB treatment, the cells were allowed to adhere to poly-D-lysine–coated coverslips for 15 min and were fixed with 2% paraformaldehyde for 10 min. The cells were then permeabilized with 0.1% Triton X-100 in PBS (10 min) and stained with affinity-purified monoclonal anti-HA (Covance 1:1,000) and polyclonal anti-eIF4E (1:2,000) antibodies in PBS containing 1% BSA for 1 h. Alexa Fluor 594-labeled goat anti-rabbit and 488-labeled anti-mouse antibodies (Invitrogen) were used at dilutions of 1:1,000 and 1:2,000, respectively. The cells were mounted using Fluoromount-G (Southern Biotech). The images were acquired at room temperature using a confocal microscope (TCS SP2; Leica) that was fitted with a Plan-Apochromat × 100 NA 1.40 oil immersion objective and a series of three photomultipliers (Hamamatsu Photonics) controlled with the Leica confocal software (version 2.61). The images were prepared using Photoshop (Adobe). […]
Thor) independent experiments. […] Confocal fluorescent […]
micrographs of fixed S2 cells expressing HA-4E-T and GFP-Tral. The localization of HA-4E-T was determined by indirect immunofluorescence using an anti-HA antibody. The merged pictures show the HA signal in red and the GFP-Tral signal in green. Bar: 5 μm.

The target of assay [2] is T1, Dm eIF4E (residues 69–248, WT) (Drosophila melanogaster, UniProt P48598).
T1 construct: The truncated His6-eIF4E (residues 69–248) that was used in the ITC experiments; His6 (N, cleaved yes); made in house; host or cells: E. coli BL21 Star (DE3)
T1 sequence (P48598 69-248 isoform P48598-2): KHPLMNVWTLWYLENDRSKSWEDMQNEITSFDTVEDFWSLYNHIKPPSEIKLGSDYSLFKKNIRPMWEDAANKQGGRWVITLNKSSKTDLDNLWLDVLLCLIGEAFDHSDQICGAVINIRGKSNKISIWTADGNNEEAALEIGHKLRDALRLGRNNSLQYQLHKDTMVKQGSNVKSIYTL
The experiment in a line: ITC, binding to eIF4E (WT, residues 69–248). Conditions: for KD: VP-ITC, 20 mM Na-phosphate (pH 7.0), 150 mM NaCl, GB1-fused peptides (C+NC 10 μM, C 50 μM, L+NC 100 μM CUP or 200 μM Thor and 4E-T, eIF4G 20 μM) into eIF4E WT 1–20 μM, one-site model, each experiment repeated twice, nb = no binding; for KD / Molar ratio / TΔS / ΔG / ΔH: 20 °C; for Molar ratio / TΔS / ΔG / ΔH: eIF4E WT (69–248), pH 7.0, nb = no binding. The method, then:
Unless indicated otherwise, all the proteins were expressed in E. coli BL21 Star (DE3) cells (Invitrogen) that were grown in LB medium overnight at 20 °C. The lysis buffers were supplemented with DNaseI (5 μg ml^−1), lysozyme (1 mg ml^−1) and protease inhibitor cocktail (Roche). The truncated His6-eIF4E (residues 69–248) that was used in the ITC experiments and in Figs 2c and 5b was purified in lysis buffer containing 50 mM HEPES (pH 7.2), 300 mM NaCl, 20 mM imidazole and 2 mM β-mercaptoethanol using Ni^2+-affinity chromatography (HisTrap HP 5 ml, GE Healthcare) and eluted with a gradient of 20–500 mM imidazole. After the cleavage of the His6-tag with HRV3C protease (homemade), the protein was further purified using a heparin column (HiTrap Heparin HP 5 ml, GE Healthcare), followed by size exclusion chromatography (Superdex 75 16/60, GE Healthcare) in 20 mM Na-phosphate (pH 7.0), 300 mM NaCl and 2 mM dithiothreitol (DTT).
For the ITC measurements and the competition assays shown in Figs 4 and 5d–g, the 4E-BP peptides corresponding to the canonical (C) motifs, the combined (C+NC) motifs or L+NC were expressed with an HRV3C cleavable N-terminal MBP-tag and a non-cleavable C-terminal GB1 domain. The cells were lysed by sonication in lysis buffer containing 50 mM HEPES (pH 7.2), 300 mM NaCl and 2 mM DTT. The proteins were purified from the cleared lysates using amylose resin (New England Biolabs) followed by the cleavage of the MBP tag with HRV3C protease overnight at 4 °C. The proteins were further purified by size exclusion chromatography (Superdex 75 16/60, GE Healthcare) in 20 mM Na-phosphate (pH 7.0), 300 mM NaCl and 2 mM DTT. For the eIF4G fragment (residues 578–650) the MBP was removed after cleavage with TEV protease through an additional anion exchange chromatography (HiTrap Q HP 5 ml, GE Healthcare) before the final gel filtration.
The ITC experiments were performed using a VP-ITC microcalorimeter (MicroCal) at 20 °C. The solution of eIF4E (residues 69–248, WT or mutant: 1–20 μM) in the calorimetric cell was titrated with tenfold concentrated solutions of GB1-stabilized peptides corresponding to 4E-BPs C+NC (10 μM), C (50 μM), L+NC (100 μM CUP, 200 μM Thor and 4E-T) or eIF4G (residues 578–650, 20 μM) that were dissolved in the same buffer (20 mM Na-phosphate (pH 7.0) and 150 mM NaCl). The titration experiments consisted of an initial injection of 2 μl followed by 28 injections of 10 μl at an interval of 240 s. Each binding experiment was repeated twice. The thermodynamic parameters were estimated using a one-site binding model (Origin version 7.0), whereby the datapoint of the first injection was removed for the analysis.
(d) minimal regions for binding to eIF4E (wild-type (WT), residues 69–248). The top panels represent the raw data (μcal sec−1) whereas the bottom panels show the integrated data (kcal mole−1 of injectant) of heat changes that were best-fitted using a one-site binding model. The thermodynamic parameters correspond to heat changes that were detected when 4E-BPs (10 µM) or eIF4G (20 µM) were injected into the calorimetric cell (1.4 mL) containing 1 µM (a,b,c) or 2 µM (d) eIF4E.
Supplementary Figure 4. Thermodynamic parameters for the interaction of eIF4E with 4E-BP peptides. (a–f) ITC profiles for the interaction of eIF4E (WT, residues 69-248) and CUP (a,d), Thor (b,e) and 4E-T (c,f) peptides containing only the canonical motifs (a–c) or the L+NC regions (d–f). The measurements were performed as described in Supplementary
Fig. 3. The solutions contained the peptides corresponding to the canonical motifs (50 µM) or the L+NC regions (100 µM for CUP and 200 µM for Thor and 4E-T). The eIF4E concentration in the calorimetric cell was 5 µM (for the C peptides), 10 µM (for CUP L+NC) and 20 µM (for Thor and 4E-T L+NC peptides).
(1 picture or pasted object on this page, not shown here)
On the technique in general: ITC needs no label: the signal is the heat of the interaction.

A further assay has as its system endogenous eIF4E. The experiment in a line: Coimmunoprecipitation / m7GTP pull-down with endogenous eIF4E in S2 cell lysates. Format: cell-based, Drosophila melanogaster. Conditions: western blot. Here is the method:
The coimmunoprecipitations assays were performed as previously described. For the pull downs using m^7GTP beads, 25 μl of immobilized γ-aminophenyl-m^7GTP (C10-spacer—Jena Bioscience) beads was added to the cell lysates and the mixtures were rotated for 1 h at 4 °C. The beads were washed three times with NET buffer (50 mM Tris (pH 7.4), 150 mM NaCl, 1 mM EDTA and 0.1% Triton X-100). The bound proteins were eluted with 2 × SDS–polyacrylamide gel electrophoresis (SDS–PAGE) sample buffer and analyzed by western blotting (WB). All of the WB experiments were developed with the ECL western blotting detection system (GE Healthcare) as recommended by the manufacturer. The antibodies used in this study are listed in Supplementary Table 2.
Thor and 4E-T) or HA-eIF4G and endogenous eIF4E in S2 cell lysates. The proteins were immunoprecipitated using a polyclonal anti-eIF4E antibody (α-4E). The pre-immune (Pre-I) serum and an HA-tagged version of MBP served as negative controls. The inputs (1%) and immunoprecipitates (10%) were analyzed by western blotting using anti-HA and anti-eIF4E antibodies. (b,c) The interaction of HA-tagged full length 4E-BPs (CUP, Thor and 4E-T) and eIF4G with endogenous eIF4E was analyzed by coimmunoprecipitation using anti-HA antibodies (b) or by pull-down using m7GTP-Sepharose beads (c). HA-MBP served as a negative control. The inputs (10%) and immunoprecipitates (30%) were analyzed by western blotting using anti-HA and anti-eIF4E antibodies. (d) Western blot showing the interaction of HA-Thor (full-length either wild-type or mutants) with endogenous eIF4E in S2 cells. The proteins were immunoprecipitated using anti-HA antibodies and analyzed as described in (b,c). (e) Western blot showing the interaction of HA-4E-T (residues 1–511, wild-type or mutants) with endogenous eIF4E. The proteins were immunoprecipitated using anti-HA antibodies and analyzed as described in (b,c). The size markers (kDa) are shown to the right of each panel. Mutants are described in Supplementary Table 1.

For assay [3], the target named is T2, eIF4E (residues 69–248), purified (Drosophila melanogaster, UniProt P48598-2 69-248).
T2 construct: eIF4E, Drosophila melanogaster, residues 69–248; the methods say the tag was cleaved with HRV3C; also called truncated eIF4E; eIF4E trunc; not shown: His6, N-terminal, cleaved
T2 sequence (looked up): T1 sequence (P48598 69-248 isoform P48598-2)
The experiment in a line: ITC; VP-ITC, 20 °C; eIF4E (69–248, WT or mutant, 1–20 μM) in the cell, tenfold concentrated GB1-stabilized peptides titrated in; 20 mM Na-phosphate pH 7.0, 150 mM NaCl; one-site binding model. Conditions: both partners purified.

No end group written: not given here.

The values below come from paper PMC4164784, “4E-BPs require non-canonical 4E-binding motifs and a lateral surface of eIF4E to repress translation” (Nature Communications, 2014).

On to “4E-T NC: 4E-T residues 31–44, non-canonical motif”, for which the “localization of endogenous eIF4E (in words)” value in assay [1] (S2 cells overexpressing 4E-BP or mutant) is on record as “the number of eIF4E-positive P-bodies was reduced”. Moreover, in assay [1] (S2 cells, steady-state), the “localization of the 4E-BP (in words)” value is listed as “still localized to P-bodies”.

As for “4E-T L+NC: 4E-T residues 22–44, linker+non-canonical”, in assay [2], the KD entry is listed as “nb”, the Molar ratio result is recorded as “nb”, the TΔS entry is given as “nb” and the ΔG result is “nb”. In addition, in assay [2], the ΔH entry is given as “nb”.

As to “CUP L+NC: CUP residues 342–376, linker+non-canonical, C-terminal GB1 (ALMHRSKESFVMPRIATCDDIELEGRLRRMNIWRT-GB1; UniProt Q9VMA3 342-376, looked up, fragment)”, in assay [2] (eIF4E WT), the “KD of L+NC relative to C motif (in words)” value is reported as “comparable to that of the C motif” and the “binding thermodynamics (in words)” value was “enthalpically driven”. In assay [2], this molecule registered a TΔS of -38.1 kJ/mol and a ΔG of -39.2 kJ/mol. Also, in assay [2] (eIF4E WT, L+NC peptides), the “interaction with eIF4E (in words)” value is on record as “interacted with eIF4E at detectable levels”.

Take “Thor L+NC: Thor residues 64–83, linker+non-canonical”: in assay [2], the KD entry is “nb”, the Molar ratio entry is on record as “nb”, the TΔS result is given as “nb” and the ΔG result is recorded as “nb”. In addition, the ΔH result in assay [2] is on record as “nb”.

B1: Thor R,G,T: Thor R81A, G82A, T83A (protein, UniProt Q9XZ56 1-117, looked up, variant R81A G82A T83A)
Eukaryotic translation …: MSASPTARQAITQALPMITRKVVISDPIQMPEVYSSTPGGTLYSTTPGGTKLIYERAFMKNLRGSPLSQTPPSNVPSCLLAAAPRTPFRKCVPVPTELIKQTKSLKIEDQEQFQLDL
Regarding B1, the “interaction with endogenous eIF4E (in words)” value in the assay with endogenous eIF4E is recorded as “ineffective”.

B2: CUP C peptide fused C-terminally to GB1 (domain or fragment)
chain: KSYTRSRLMDIRNGMFN
By Kd is commonly meant the equilibrium constant for the complex coming apart. Lower therefore signals higher affinity. Broadly, the stoichiometry N is a count of units in the complex or per binding partner. Take B2: in assay [3], the Kd turned out to be 0.16 µM, the dH was -70.46 ± 0.167 kJ/mol and the “stoichiometry N” value turned out to be 1.01 ± 0.01.

B3: CUP L+NC peptide fused C-terminally to GB1 (domain or fragment)
chain: ALMHRSKESFVMPRIATCDDIELEGRLRRMNIWRT
Consider B3, for which, in assay [3], the dissociation constant (Kd) worked out at 0.103 µM, the dH is -77.4 ± 0.837 kJ/mol and the “stoichiometry N” value turned out to be 0.98 ± 0.01.

B4: Thor C peptide fused C-terminally to GB1 (domain or fragment)
chain: TKLIYERAFMKNLR
As to B4, in assay [3], the equilibrium dissociation constant (Kd) turned out to be 2.26 µM, the dH was -50.6 ± 11.7 kJ/mol and the “stoichiometry N” value was determined as 1.06 ± 0.01.

B5: 4E-T C peptide fused C-terminally to GB1 (domain or fragment)
chain: RYSKVDLLALRYE
On to B5, for which, in assay [3], the dissociation constant (Kd) is 0.016 µM, the dH was -77.8 ± 2.93 kJ/mol and the “stoichiometry N” value was found to be 0.95 ± 0.01.
